In PMC12741062 (Frontiers in Immunology, 2025):

molecular target: T1, BVDV NS4B-His recombinant protein (Bovine viral diarrhea virus 1, GenBank …); assay: ELISA; iELISA; NS4B-His or the control BVDV-NS5A-His as coating antigen; the nine nanobodies added; anti-E-tag detection; settings: one partner purified
T1 construct: also called recombinant NS4B protein

Row | Binder | binding result
1 | Nb27 (VHH) VHH: LQESGGGSVQAGGSLKLSCAASGPIFRRCGMGWYRQAPGKEREVVSGINDAGTASYADSVKGRFTISQDNAKNMLYLQMNSLKTEDTAVYYCAGRKYYDVGNYCSVDLYWGQGTQVTVSS | binds
2 | Nb67 (VHH) VHH: LQESGGGLVQAGGSLRLSCTASGLNVDNYEMGWFRQAPGKEREGIAQISCSGAMTYYADSVKGRFTISRDNAKKTLYLQMNSLTPEDTAMYYCAAQTRVCGLWTSRGPEMESDFDAWGQGTQVTVSS | binds
3 | Nb70 (VHH) VHH: LQESGGGSVQAGGSLRLSCTASTFTYISLYMGWFRQAPGKEREGVAGIYAGGGDTYYADSVKGRFTISQDDAKRTVYLQMNSLKPEDTAMYYCAADRGPSRWDFRSWGQGTQVTVSS | binds
4 | Nb72 (VHH) VHH: LQKAGGVSEQAGASLRLSCVLSARIYGRCCLLWFRQDPGNREGISSINTDGKTSYTDSGKDRFTVSQYTDYNILQLQMNSLKPDDTAVYYCGATERVGDICTEYKYRGQGTQVTVSS | binds
5 | Nb85 (VHH) VHH: LQESGGGSVQAGGSLRLSCVSSEYSGTIFAMGWFRQAPGKEREGVAVVDSAITKHYADSVKGRFTISRDNAKNRLDLQMDSLKPEDTGMYYCARSRGYLAGASATLRPTNYDDWGQGTQVTVSS | binds

molecular target: T2, BVDV NS4B-His recombinant protein (Bovine viral diarrhea virus 1, GenBank …, UniProt A0A068L3P0); assay: ELISA; iELISA; 96-well plates coated with NS4B protein (400 ng/well); incubated with TAT-Nb91 or Nb91; anti-camel serum (1:2,000) and HRP-conjugated secondary antibody; OD 450 nm; settings: both partners purified
T2 construct: also called recombinant NS4B protein

Row | Binder | binding result
6 | TAT-Nb91 recombinant protein (VHH, TAT cell-penetrating peptide from HIV; Linker; VHH of Nb91, as the VHH of m11; About 19 kDa; The primers carry HindIII and XhoI sites; also called TAT-Nb91-His; not shown: His6, C-terminal, kept) VHH: LQESGGGSVQAGGSLKLSCAASGSTFNSCGMGWYRQVPGKERELVSTISDSDTTTYADAVKGRFSISQDKTKNTLYLQMNSLKTEDTARYYCAARSIFAERVCSIHFDSWGQGTQVTVSS | binds
